Experimental data reported in the DeepSol protein solubility set.

Assay: soluble on expression in E. coli; label from the status in PepcDB or PDB records

Sequence	soluble on expression in E. coli
MSTAINSVEMSLSADEIRERVRAAGVVGAGGAGFPAHVKLQAQVEIFLVNAAECEPMLKVDQQLMWQQAARLVRGVQYAMTATGAREGVIALKEKYRRAIDALTPLLPDGIRLHILPDVYPAGDEVLTIWMATGRRVAPAALPASVGVVVNNVQTVLNIARAVEQRFPVTRRTLTVNGAVARPLTVTVPIGMSLREVLALAGGATVDDPGFINGGPMMGGLITSLDNPVTKTTGGLLVLPKSHPLIQRRMQDERTVLSVARTVCEQCRLCTDLCPRHLIGHELSPHLLVRAVNFHQAATPQLLLSALTCSECNVCESVACPVGISPMRINRMLKRELRAQNQRYEGPLNPADEMAKYRLVPVKRLIAKLGLSPWYQEAPLVEEEPSVEKVTLQLRQHIGASAVANVAVGERVTRGQCVADVPPGALGAPIHASIDGVVSAISEQAITVVRGLEHHHHHH	soluble
MSTDLRALLEQARQQGDYTALLEQIPYAKLIGIECTQLGDELLFRLPANKDNIGNPLLPALHGGVIAGFMELAAALHLLILTGSPGVPKIIDFSLDYLRAGQFRDTFARCQVCRQGRRVANVAITAWQSTAEESIATARAHFKIEESTGPLEHHHHHH	soluble
MSTEIKTLKPQAVWEYFYDLTQIPRPTGQMDEVTKYVFDFGKRLGLETEQDEVGNVIIRKPATPGMENKPIVTLQSHLDMVPQKNSDIDHDFTKDPIDAYIDGEWVKARG	not soluble
MSTEKLEASEEPQAPLANTSETNSIKGDTENIVTVFDLANEIEKSLKDVQRQMKENDDEFSRSIQAIEDKLNKMSR	not soluble
MSTGANLLVMNDTCKSNRWWKTKQEKKHSEIKKVKTLKSTWDKKMELKAKKDMVKRVQDNIREKQVQERQEKKERKVEQEKRRLENERKAEIVQKITKIHKLKKTKKRQLRSIQMRDTTQVTK	not soluble
MSTKADNRHLYLKVIERIKEDIKNGIYTEKEKLPSEFELSKKLGVSRATLREALRILEEEHVIIRRHGVGTFVHSKPLFLSGIEQLNSVTKMIEQANMTPGTIFLSSQVLMPSEDDTKRFHLAEGQELFYLERVRTADGQPIVYCIDKIPMNILPNSFSHQQESMFDLLEKNSGSVISYAVTDIEPIGYHDTISPVLECDPETALLLLKQTHYDQHDKPVLYSLNYFRADKFRFHVLRKRF	not soluble
MSTKEKKTKKPHNVKSSVVPPKKWKTKKKDKKGTGKLRKTASNASLKKHGSTHKIKKPEDITSDGCPLLLTASDTCANIYAEQLSAPNNLSAKTSTPHKSIEAALTPVAFSPPPATQATQAMDAPATTKTAVKPTKWKAEDVAVAYIQKLDPGVIRAEYIEACAATKVNIDKDCQLWKKNLQMNQADNYPILDSTIVKNPAQPDSYVNMSSVIVPHCRYPILMAQMPKRGFEEEFWRAAFNESVVIMYVLMGTEDEKNDFFPTTMGAYVYYGAMFVNIRKVEKMDEERTRYTIEVLPNGFSNSVMMNVYVHTGWEASGVPVRYANTTRSVVDVMNFVKTSSGTEKMLVVSKNGCGRAGFFLSLGAAFCCLNDNSEPRIGEIVKAIRSQRPNAVDSIKQYASIYLCFVYYIKKKITIPEGMQQKFDDLKKGIEAIIREDLSIMY	not soluble
MSTLAQLLDTKRTALAAELAGFIDRSVSQSSGISGVALKGAVAAAKKVRPDIVTKGAERLLPEVVEVLDPYWASFEASDSTHFGEFLEQHKSEVSDKILEVADRNAEKVDMPALKKAYGSLRGKAASFIEPNLPGLGQIMQNYMK	not soluble
MSTNLNIEVSINLTEIDVNAQLAEFARFQQVRDDSRYAQDVEREFVLGPIRHHRRQLEPSRSAPLASTEQPVAQATTHPSTENARVPALVLRSGSWRALPVAQGGSSHIRIWPVSRSATTTSTATRHPPFTNTSASTSFAPYQRHRGSALQTSECTICFEKPVDPRGCPKCLKVIGCKKCVKKWFDTSASKACPLCRFEWKLHRDNPDVVKISTLEVLKRQKQNRP	not soluble
MSTPHINVIGAGLAGSEAAWQIAERGIAVHLYEMRPVKQTPAHHTDKFAELVCSNSLRGNSLTNAVGVLKEEMRRLNSVIIRSADRCSVPAGGALAVDRHEFAQAVTEAVREHPNVTVFTEEIQKIPDGPTVIATGPLTSKALSEQLKQLTGEEYLYFYDAAAPIIETDSINMDKVYLKSRYDKGEAAYLNCPMTEEEFDRFYEALISAETVPLKEFEKEVFFEGCMPVEVMAKRGKKTLLFGPMKPVGLEDPKTGKRPYAVVQLRRDNQSGTLYNIVGFQTHLKWGPQKEVIQLIPGLENAEIVRYGVMHRNTFINSPNLLKPTYQYKKRKDLFFAGQITGVEGYVESAAAGLVAGLNAARLVQSKELVVFPDTTMLGSMANYITTANSKNFQPMNANFGLLPPLDTRIKDKKTRYETLAGRALESIQNFVKKMLEHHHHHH	soluble
MSTPTAADRAKALERKNEGNVFVKEKHFLKAIEKYTEAIDLDSTQSIYFSNRAFAHFKVDNFQSALNDCDEAIKLDPKNIKAYHRRALSCMALLEFKKARKDLNVLLKAKPNDPAATKALLTCDRFIREERFRKAIGGAENEAKISLCQTLNLSSFDANADLANYEGPKLEFEQLYDDKNAFKGAKIKNMSQEFISKMVNDLFLKGKYLPKKYVAAIISHADTLFRQEPSMVELENNSTPDVKISVCGDTHGQFYDVLNLFRKFGKVGPKHTYLFNGDFVDRGSWSCEVALLFYCLKILHPNNFFLNRGNHESDNMNKIYGFEDECKYKYSQRIFNMFAQSFESLPLATLINNDYLVMHGGLPSDPSATLSDFKNIDRFAQPPRDGAFMELLWADPQEANGMGPSQRGLGHAFGPDITDRFLRNNKLRKIFRSHELRMGGVQFEQKGKLMTVFSAPNYCDSQGNLGGVIHVVPGHGILQAGRNDDQNLIIETFEAVEHPDIKPMAYSNGGFGL	soluble
MSTSSRTPSPSSLSACGGPSSSTTTAHPSSSPKSKTSVTSSRSDTDSVIPEHKPSSASSFSIGRLLFRSSGSSNSTKRDSVDSGKDDETGRSPATSRPGSPNPGGDKSPQMSTSRRLAGFASRSIRKSQWRLFKHRTFFGSQRSSMKKNQLQLPRLTLRHPSIDSSAMPLQLDVDENASGEGSDDFLQIRRSTQRRWTDSDTTGRLRDSRDSSDFNDSHDTLDIAGTSAHGVADSSSHHHHNYSMTAPVSPNVPLSASSSHSEGWKYSSQKLLWKLKPKYAYSHASSTSSSTDSAWKSLDSMTWRSVDGAEVVLRGARLENLSEIERSALQLLAAQRLTKMLPGVNLGKPKALRQKRQKLVKSNRTPTVADVQRRASGTPMPEEKRVFGVSLAMCMLNEKRLDQESRCRSLDDSTVIMLNKSKAKPTKSEPEMMSHTMPEDRKWLYPSTQNLYPTSTSNPSSPSPIMGSAPPTGSILPSANLLSAEPTTCEPQQVTGRFLKKQRPASASFSCSLDANIDDVDPHALQVPKIVENCTQYLMTYGLTQVGLFRVAGNTKRCRQLRNALEKVGGGAVINDNMVENTTSHDVATLLKEYFRDLPQSLLPGEHYSAYIGAAKLNVDERIEAIRLLFALLVSPILDTLFVLLKFLHEVSCHSQDRHDEDGELLSGNKMDARNLATIFAPSILRVDHDKLHETLAENEHQVIIVETMISNVEEIFKIPKELQCKIYTKLRETEPDRLDRILNHLSKMDSHESHPGVLLSPFPATLEEDSSPRHHRHGDHSHIGRQSPLARELTTNGKVKVQSQRSGSWPFSLTKTQTSPSRPEGQHFFPADSQDGPGPSHSHHDPSTSGTTMSATTTPGPGRKTDFSMKAADDSGRDSEFCSDELTFGTISQPETARERSVTMSTACGSPSTSNSKKTPMMASLQGATTSKSVDARSPSRERVDIRSAARSSAAAARRRLRNVVRAFRFTSMTRSTPDIAQSS	not soluble
MSVASETNWKKLDEKIAISGQISVDDVAAIAAAGYKSIICNRPDGEGGEHQPGSTELEEAAKAAGLQFAYLPVEIGQVSDEKCSAFHQLMATLPGPVLAFCNSGNRARALYSRDVGTTTTPAETISAACDWEHEAAAVTEAESEAAGAAAVSAASSRDEAAGKSIPVTPACNWDNAFDIVVVGGGSAGLGVTASLLRRRSSLRIAIIEPNDKHYYQPAWTLVGGGAYAVDQTVRNTADVIPHGAEWIKAEVSGFSPNDNLVHLADGRTIGYQQLIVCPGIRLAWEKIEGIQETLGKNGVTSNYLFDLAPYTWSLTQQLKGGKALFTQPPMPIKCAGAPQKAMYLSCDYWQRQGVLDKIEVEFDSAGAVLFGVADFVPPLMEYVRKYHANLVFNSNLVKVNGPEKIATFEIKNEAGEVTRVDKPFDMLHVTPPQAAPDFLRDSPLADASGYCEVNPKTLQHTRFANIFSLGDACSSPNTKTAAAVRKQIVIVAENLLAAKDGREFHAVYDGYGACPLTVENGKVVLAEFGFGGKLLPTFPLNPAVARKLYWWFKVKLFPWLYWEGMLKGREWLTRSTETKLEHHHHHH	soluble
MSVEFQFQALVEDTPNEKWKAIFQQLWPGYRAWFLRSGVTGRPTYLECRQALRTYMPELVPLWEQLIELTGGGDVESRFLSLWCPPPYIAGCSQGVWFDPKGQEEPILLRNYDFAPVLLEGNLLNTRWLDQRVIAMSDCLWGALDGVNEAGLSASLSFGGRTVTGTGFGIPLVLRYILELAHTTQDAVNILKRIPVHMTYSVTLLDRKGEWNTVFVSPDRQPEVVKRHAVTNYQNAIEWPQHATATHSAERLTFLEQVLHHATNSHEVLQGLLTKPLYQDAWLRGYGTLYSAIYRPLSQKVEICWPHDYSQQSFEHFTEEQKLILLSVELEHHHHHH	not soluble
MSVEIESIEHELEESIASLRQAGVRITPQRQAILRYLISSHTHPTADEIYQALSPDFPNISVATIYNNLRVFKDIGIVKELTYGDSSSRFDFNTHNHYHIICEQCGKIVDFQYPQLNEIERLAQHMTDFDVTHHRMEIYGVCKECQDK	not soluble
MSVGKPLPHDSARAHVTGQARYLDDLPCPANTLHLAFGLSTEASAAITGLDLEPVRESPGVIAVFTAADLPHDNDASPAPSPEPVLATGEVHFVGQPIFLVAATSHRAARIAARKARITYAPRPAILTLDQALAADSRFEGGPVIWARGDVETALAGAAHLAEGCFEIGGQEHFYLEGQAALALPAEGGVVIHCSSQHPSEIQHKVAHALGLAFHDVRVEMRRMGGGFGGKESQGNHLAIACAVAARATGRPCKMRYDRDDDMVITGKRHDFRIRYRIGADASGKLLGADFVHLARCGWSADLSLPVCDRAMLHADGSYFVPALRIESHRLRTNTQSNTAFRGFGGPQGALGMERAIEHLARGMGRDPAELRALNFYDPPERGGLSAPPSPPEPIATKKTQTTHYGQEVADCVLGELVTRLQKSANFTTRRAEIAAWNSTNRTLARGIALSPVKFGISFTLTHLNQAGALVQIYTDGSVALNHGGTEMGQGLHAKMVQVAAAVLGIDPVQVRITATDTSKVPNTSATAASSGADMNGMAVKDACETLRGRLAGFVAAREGCAARDVIFDAGQVQASGKSWRFAEIVAAAYMARISLSATGFYATPKLSWDRLRGQGRPFLYFAYGAAITEVVIDRLTGENRILRTDILHDAGASLNPALDIGQIEGAYVQGAGWLTTEELVWDHCGRLMTHAPSTYKIPAFSDRPRIFNVALWDQPNREETIFRSKAVGEPPFLLGISAFLALHDACAACGPHWPDLQAPATPEAVLAAVRRAEGRA	soluble
MSVNMDELRHQVMINQFVLAAGCAADQAKQLLQAAHWQFETALSTFFQETNIPNSHHHH	soluble
MSVQPETMPDSSNKTNPTVKEVIAYLADKFPLCFSIEGEAKPLKVGLSQDLAEALADDEKVSKTLLRQVLRSYTMSWRYLACCKANAQRIGLQGENVGIVDEAQAEHAAQSLAVAKEAYAARKAEQRKEQRKDFFKKKAREERNAKTMNKAVKKGSPKKDTFAKATAESLAVLTHKFSKGNK	not soluble
MSVSPFFNPKRDSQLGEMMRDMGGMQRRLMPISGTFNPMTDDSEIMNSNDKFAVNLNVSNFKPEELKVNLEGRQLSIQGEHDVENEHGASRKSFSRMILLPEDVDITSVATNLSNDGKLCIEAPKLEGVCGRSVPVKEASMDHHHIE	not soluble
